Data on 5 molecules can be found in patent publication US20250326840A1 (QURE BIOTECHNOLOGY SHANGHAI, published 2025).

Test [1] has as its target T1, SIRPα V4 fusion Fc (mouse IgG2a) (human, limits assumed).
T1 chain: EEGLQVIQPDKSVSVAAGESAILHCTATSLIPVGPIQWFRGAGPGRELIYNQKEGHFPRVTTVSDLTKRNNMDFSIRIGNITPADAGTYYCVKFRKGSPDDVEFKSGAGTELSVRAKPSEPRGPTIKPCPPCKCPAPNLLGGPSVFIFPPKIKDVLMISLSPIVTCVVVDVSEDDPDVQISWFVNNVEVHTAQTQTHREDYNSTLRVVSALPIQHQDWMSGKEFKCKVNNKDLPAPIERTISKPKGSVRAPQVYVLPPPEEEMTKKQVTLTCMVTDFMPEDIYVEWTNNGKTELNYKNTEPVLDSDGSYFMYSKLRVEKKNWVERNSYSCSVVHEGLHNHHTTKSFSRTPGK
Kind of test: ELISA, SIRPα V4-mouse IgG2a Fc coated, anti-hFab detection; unit from the x axis Log(Conc.(nM)).

For test [2], the target named is T2, QP537 (SIRPαV8-mFC(mIgG2a)) (human).
T2 construct: also called human SIRPα V8 recombinant protein (QP537)
The test is described as follows: ELISA, human SIRPα V8 recombinant protein (QP537) coated, HRP anti-human Fc detection.

Test [3] concerns the target T3, QP534 (SIRPαV5-mFC(mIgG2a)) (human, limits assumed).
T3 construct: also called human SIRPα V5 recombinant protein (QP534)
T3 chain: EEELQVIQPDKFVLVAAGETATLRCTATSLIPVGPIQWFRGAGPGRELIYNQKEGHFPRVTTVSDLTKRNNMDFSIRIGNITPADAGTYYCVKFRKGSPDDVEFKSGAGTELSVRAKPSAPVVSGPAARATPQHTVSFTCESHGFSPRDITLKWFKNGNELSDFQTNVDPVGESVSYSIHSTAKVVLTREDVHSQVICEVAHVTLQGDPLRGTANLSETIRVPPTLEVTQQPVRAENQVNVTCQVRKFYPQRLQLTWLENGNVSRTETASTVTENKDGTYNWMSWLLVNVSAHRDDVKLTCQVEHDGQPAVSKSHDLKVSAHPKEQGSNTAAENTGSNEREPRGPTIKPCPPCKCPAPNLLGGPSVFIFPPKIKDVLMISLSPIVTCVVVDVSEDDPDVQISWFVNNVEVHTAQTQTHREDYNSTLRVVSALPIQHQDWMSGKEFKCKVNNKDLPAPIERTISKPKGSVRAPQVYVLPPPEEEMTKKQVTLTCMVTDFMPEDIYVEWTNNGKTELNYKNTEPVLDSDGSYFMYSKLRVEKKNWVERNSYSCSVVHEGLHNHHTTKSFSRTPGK
The test is described as follows: ELISA, human SIRPα V5 recombinant protein (QP534) coated, HRP anti-human Fc detection.

Test [4] addresses T4, QP532 (SIRPαV3-mFC(mIgG2a)) (human).
T4 construct: also called human SIRPα V3 recombinant protein (QP532)
Kind of test: ELISA, human SIRPα V3 recombinant protein (QP532) coated, HRP anti-human Fc detection.

For test [5], the target named is T5, human SIRPα V2 on THP-1 cells (human, UniProt P78324 31-504).
T5 construct: whole, on cells; also called THP-1 (human SIRPα V2)
Kind of test: FACS on THP-1 cells.

Test [6] has as its target T6, QP535 (SIRPαV6-mFC(mIgG2a)) (human, limits assumed).
T6 construct: also called human SIRPα V6 recombinant protein (QP535)
T6 chain: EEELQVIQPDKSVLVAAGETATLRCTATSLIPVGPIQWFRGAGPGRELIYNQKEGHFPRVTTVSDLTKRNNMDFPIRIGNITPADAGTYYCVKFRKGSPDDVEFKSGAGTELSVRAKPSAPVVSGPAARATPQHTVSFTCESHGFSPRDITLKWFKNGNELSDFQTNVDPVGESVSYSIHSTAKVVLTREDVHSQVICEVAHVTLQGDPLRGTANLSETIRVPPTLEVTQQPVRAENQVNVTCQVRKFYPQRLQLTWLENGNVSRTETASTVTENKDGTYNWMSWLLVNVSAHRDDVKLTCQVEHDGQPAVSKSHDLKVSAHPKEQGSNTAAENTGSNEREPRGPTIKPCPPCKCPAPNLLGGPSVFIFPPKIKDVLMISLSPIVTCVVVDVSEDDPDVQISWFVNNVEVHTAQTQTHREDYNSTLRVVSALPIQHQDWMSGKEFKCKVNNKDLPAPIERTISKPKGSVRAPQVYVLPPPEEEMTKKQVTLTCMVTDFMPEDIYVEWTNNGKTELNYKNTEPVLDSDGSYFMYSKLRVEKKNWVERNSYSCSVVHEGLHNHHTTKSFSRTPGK
Kind of test: ELISA, human SIRPα V6 recombinant protein (QP535) coated, HRP anti-human Fc detection.

In test [7] the target is T7, QP095 (human SIRPα V2 ECD(E31-R370)-mFC(IgG2a)) (human).
T7 construct: also called human SIRPα V2 recombinant protein (QP095)
The test is described as follows: ELISA, human SIRPα V2 recombinant protein (QP095) coated, HRP anti-human Fc detection.

Test [8] addresses T8, QP536 (SIRPαV7-mFC(mIgG2a)) (human).
T8 construct: also called human SIRPα V7 recombinant protein (QP536)
Kind of test: ELISA, human SIRPα V7 recombinant protein (QP536) coated, HRP anti-human Fc detection.

Test [9] has as its target T9, human SIRPα V1 on U-937 cells (human, UniProt P78324 31-504).
T9 construct: whole, on cells
Kind of test: FACS on U-937 cells.

T5 sequence (P78324 other isoform, or with tags, fused parts or gaps limits assumed): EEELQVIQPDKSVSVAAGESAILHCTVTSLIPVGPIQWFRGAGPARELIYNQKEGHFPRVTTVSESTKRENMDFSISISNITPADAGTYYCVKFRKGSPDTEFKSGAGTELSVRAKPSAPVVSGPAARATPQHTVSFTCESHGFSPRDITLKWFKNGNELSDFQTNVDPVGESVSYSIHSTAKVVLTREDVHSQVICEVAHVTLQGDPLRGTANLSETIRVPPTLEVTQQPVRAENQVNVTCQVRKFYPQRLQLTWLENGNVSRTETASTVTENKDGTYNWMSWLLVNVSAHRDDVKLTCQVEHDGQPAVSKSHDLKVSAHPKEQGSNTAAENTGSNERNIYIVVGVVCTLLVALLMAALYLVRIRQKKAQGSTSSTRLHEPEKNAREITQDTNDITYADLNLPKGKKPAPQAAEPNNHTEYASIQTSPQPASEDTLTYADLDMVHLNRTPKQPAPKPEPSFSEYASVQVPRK

B1: QP256279 (antibody, human IgG4, V domains shown)
VH: QVQLVQSGAEVKKPGASVKVSCKASGYTFTNYWINWVRQAPGQGLEWIAMIDPSDSETHYNQIFKDRATLTTDTSTSTAYMELRSLRSDDTAVYYCAMDYGSLYAMDYWGRGTLVTVSS
VL: DIVLTQSPDSLAVSLGERATINCRASQSVRSSGYNWIFWYQQKPGQPPKLLIYLASNRDSGVPDRFSGSGSGTDFTLTISSLQAEDVAVYYCQHSRELPTFGQGTKLEIK
notes: Human IgG4 heavy constant region and kappa CL
As to B1, the EC50 in [1] was determined as 0.0574 nM.

B2: QP32700279 (antibody, human IgG1, kappa, L234A L235A, V domains shown)
VH: QVQLVQSGAEVKKPGASVKVSCKASGYTFTNYWINWVRQAPGQGLEWIAMIDPSDSETHYNQIFKDRATLTTDTSTSTAYMELRSLRSDDTAVYYCAMDYGSLYAMDYWGRGTLVTVSS
VL: DIVLTQSPDSLAVSLGERATINCRASQSVRSSGYNWIFWYQQKPGQPPKLLIYLASNRDSGVPDRFSGSGSGTDFTLTISSLQAEDVAVYYCQHSRELPTFGQGTKLEIKR
notes: also called SIRPα monoclonal antibody CHO71
As to B2, the EC50 in [2] stood at 0.341 nM; in test [3], 0.15 nM; in test [4], 0.144 nM; in [5] it was 0.0743 nM; in [6], 0.224 nM; in [7] it was 0.186 nM. The EC50 is 0.176 nM in test [8] and 0.076 nM in test [9].

B3: QP026249 (KWAR23 analog) (antibody, human IgG4 S228P, kappa)
heavy: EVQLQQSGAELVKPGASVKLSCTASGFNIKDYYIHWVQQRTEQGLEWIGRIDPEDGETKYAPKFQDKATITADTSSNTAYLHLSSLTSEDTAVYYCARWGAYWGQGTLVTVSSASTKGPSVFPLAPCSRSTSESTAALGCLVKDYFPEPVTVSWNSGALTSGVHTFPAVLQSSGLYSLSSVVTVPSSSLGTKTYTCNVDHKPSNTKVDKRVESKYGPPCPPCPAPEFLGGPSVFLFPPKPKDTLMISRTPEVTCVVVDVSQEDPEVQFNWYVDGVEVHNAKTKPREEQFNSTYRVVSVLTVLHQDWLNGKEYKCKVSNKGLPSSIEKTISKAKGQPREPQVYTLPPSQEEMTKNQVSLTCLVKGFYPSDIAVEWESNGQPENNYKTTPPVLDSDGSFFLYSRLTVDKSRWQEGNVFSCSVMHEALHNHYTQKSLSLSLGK
light: QIVLTQSPAIMSASPGEKVTLTCSASSSVSSSYLYWYQQKPGSSPKLWIYSTSNLASGVPARFSGSGSGTSYSLTISSMEAEDAASYFCHQWSSYPRTFGAGTKLELKRTVAAPSVFIFPPSDEQLKSGTASVVCLLNNFYPREAKVQWKVDNALQSGNSQESVTEQDSKDSTYSLSSTLTLSKADYEKHKVYACEVTHQGLSSPVTKSFNRGEC
notes: also called KAWA23 analog; control antibody KWAR23 (QP026249), human IgG4
With B3, the EC50 is 0.689 nM in test [2]; 0.115 nM in test [1]; 0.418 nM in test [3]; 0.433 nM in test [4]; 0.261 nM in test [5]; 0.603 nM in test [6]. The values for the EC50 in test [7], in [8] and in test [9] were 0.467 nM, 0.376 nM and 0.21 nM, respectively.

B4: QP37503751 (1H9 analog) (antibody, human IgG1, kappa, N297A, V domains shown)
VH: QVQLVQSGAEVKKPGASVKVSCKASGYTFTSYWITWVKQAPGQGLEWIGDIYPGSGSTNHIEKFKSKATLTVDTSISTAYMELSRLRSDDTAVYYCATGYGSSYGYFDYWGQGTLVTVSS
VL: DIQMTQSPSSLSASVGDRVTITCRASENIYSYLAWYQQKPGKAPKLLIYTAKTLAEGVPSRFSGSGSGTDFTLTISSLQPEDFATYYCQHQYGPPFTFGQGTKLEIKR
notes: also called hz1H9 hIgG1(N297A)
In the case of B4, the EC50 in test [2] came out at 0.908 nM; in test [3] it was 0.167 nM; in test [4], 0.31 nM; in [5] it was 0.21 nM; in test [6], 0.273 nM; in test [7] it was 0.218 nM. For the same molecule, the EC50 was 0.247 nM in [8] and 0.158 nM in test [9].

B5: QP250251 (18D5 analog) (antibody, human IgG4 S228P, kappa, V domains shown)
VH: QVQLQQPGAELVRPGSSVKLSCKASGYTFTSYWVHWVKQRPIQGLEWIGNIDPSDSDTHYNQKFKDKASLTVDKSSSTAYMQLSSLTFEDSAVYYCVRGGTGTMAWFAYWGQGTLVTVSA
VL: DVVMTQTPLSLPVSLGDQASISCRSSQSLVHSYGNTYLYWYLQKPGQSPKLLIYRVSNRFSGVPDRFSGSGSGTDFTLKISRVEAEDLGVYFCFQGTHVPYTFGSGTKLEIKR
notes: also called SIRPα antibody 18D5 from OSE
Regarding B5, the EC50 was 0.125 nM in test [1], 0.438 nM in test [3], 0.884 nM in test [6] and 0.581 nM in test [9]. Besides, the binding result in test [5] is “no binding”.
